Test results as given in publication PMC7384550 (Journal of molecular biology, 2019).
Residue numbers refer to the chain shown, from its start. Names may count otherwise.

T1: SinR (Bacillus subtilis, UniProt P06533 1-111)
T1 sequence: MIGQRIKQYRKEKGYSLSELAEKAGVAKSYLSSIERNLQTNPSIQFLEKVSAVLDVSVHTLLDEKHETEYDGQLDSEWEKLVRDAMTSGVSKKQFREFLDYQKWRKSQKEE

B1: 22-mer inverted repeat, 6-FAM (dsDNA)
DNA 1: TTTGTTCTCTAAAGAGAACTTA
DNA 2: TAAGTTCTCTTTAGAGAACAAA
B2: SinI (antagonist of SinR) (natural protein, Bacillus subtilis, UniProt P23308 1-57, looked up)
chain: MKNAKQEHFELDQEWVELMVEAKEANISPEEIRKYLLLNKKSAHPGPAARSHTVNPF
B3: SinI^quad (SinI K34E, L38Y, K41W, S42R) (natural protein, Bacillus subtilis, UniProt P23308 1-57, looked up)
chain: B2 chain with K34E, L38Y, K41W, S42R
B4: SinR (full-length, tetrameric transcriptional repressor) (natural protein, Bacillus subtilis, UniProt P06533 1-111, looked up)
chain: T1 sequence
B5: 90 bp tapA-sipW-tasA promoter bending substrate (dsDNA)
DNA 1: GAAAGTTCTCTAAAGAGAACATTATAAATAATAAGGGAAGTGCAGTAAATTAGAGGAAAATCATGTATTGTTCTCTAAAGAGAACTTAG
DNA 2: CTAAGTTCTCTTTAGAGAACAATATCATGATTTTCCTCTAATTTACTGCACTTCCCTTATTATTTATAATGTTCTCTTTAGAGAACTTTC
modifications: internal fluorescein-dT (T22 of strand 1); internal BHQ-1-dT (T25 of strand 2), both written as T
B6: SinRC, the C-terminal oligomerization domain of SinR (residues 69-111) (domain or fragment, Bacillus subtilis, UniProt P06533 69-111, looked up)
chain: EYDGQLDSEWEKLVRDAMTSGVSKKQFREFLDYQKWRKSQKEE

Columns and labels:
SinR [1] = target: T1, SinR; experiment: fluorescence anisotropy/polarization
[2] = target: B4; experiment: AUC
SEC = target: the molecule itself; experiment: SEC
AUC = target: the molecule itself; experiment: AUC
SinR [3] = target: T1, SinR; experiment: fluorescence quenching DNA-bending assay

Row | Binder | binding result [2] | stoichiometry N (SEC) | other results
1 | B1 | – | – | Kd (SinR [1]): 249 ± 38 nM
2 | B2 | binds | 2 | –
3 | B3 | binds | – | stoichiometry N (AUC): 2
4 | B4 | – | 4 | –
5 | B5 | – | – | binding result (SinR [3]): binds
6 | B6 | – | 4 | –
